Results as given in the supplement of paper PMC12042874.
± gives the uncertainty stated by the source.

Assay: amyloid nucleation score (Sup35N fusion, yeast selection) (log enrichment); library NNK1; higher = more nucleation; inactive = no reads after selection
How it was run: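 Random libraries were run with three technical output replicates. In each, psi-negative yeast expressing Sup35N fused to peptides of 20 random codons were induced 24 hours with 100 μM copper sulfate and grown 7 days at 30°C on medium lacking adenine and uracil, and input and output plasmid inserts were Illumina-sequenced. The nucleation score is the DiMSum log enrichment of output over input reads, centred on the mode score of non-aggregating sequences, and sequences under 100 input reads were excluded.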

Row | Substance | amyloid nucleation score
1 | RGMKCIMSSKDVGS | -1.13 ± 2.4
2 | PTPILFCYQRCLGVYYMDET | 0.198 ± 0.4
3 | LNLTCDHSPSYLLIFFLMSI | 0.719 ± 0.2
4 | FSMWRSWNNNYSLISHSTGH | 0.367 ± 1.2
5 | NLLGDSLWEPLNLVDGSTLW | 0.235 ± 0.3
6 | MSDKSTWYC | 0.157 ± 0.61
7 | PFLNVEHFVMVDRFIVPDI | 0.559 ± 0.79
8 | LLVSFTENNRPDLILQSHLM | -1.2 ± 1.2
9 | LGHAKRGDWSWLKFSCDSGE | -0.167 ± 0.48
10 | MCKVHIIEHCSLYWRSCGIW | inactive
11 | NHFLYLFVRYYTRLAEHVYA | -0.08 ± 0.56
12 | ITFERGYCTKNITFATTTCP | 1.23 ± 0.47
13 | HVCKRRFRFRGLTILCRFTL | -0.769 ± 1.1
14 | WGTLVIGCFVHTVNLHNRKR | 6.809 ± 0.048
15 | GYACYFSSSDYCWVAPHCGL | 1.01 ± 0.14
16 | TARFINVDVLSPW | 1.32 ± 0.28
17 | GERTCSYIYGLFTIFYTGLR | -0.048 ± 1.3
18 | LRDDRFLMKLHYKKQDSSCV | 0.324 ± 0.53
19 | IQTKGNKDVIGVYITMYTRL | -0.671 ± 0.28
20 | EICYRMICCYSN | 0.085 ± 0.66
21 | RFNTWFVNYLCHPLYSLEG | 5.55 ± 0.064
22 | FWDVVKLNGGSGMALFYAGL | 0.145 ± 1

Row | Substance | amyloid nucleation score
23 | ERAPASSMGSWYGIGKGNAV | -0.061 ± 1.1
24 | LMKYWYDVHRNESGITSNNI | -1.26 ± 0.42
25 | QNPLMRNYNPRFCHCGLSAP | inactive
26 | SYSSVVSVYFLQIYFF | 4.05 ± 0.054
27 | NGGAPSGNSGFKYSCKGWFV | -0.452 ± 0.52
28 | RWWSWCSFTSSIFYCYLLCA | 2.2 ± 0.13
29 | VSALAVRARWAINTLARDRR | 0.9 ± 0.66
30 | SYSFAWGS | 1.82 ± 0.45
31 | FFTHCMWD | -1.05 ± 1.1
32 | HMLWNNVRIF | 0.09 ± 0.6
33 | ICGNSSTEASGL | 0.039 ± 0.56
34 | GVVGNTHQVPNRGRRSRFLL | -1.54 ± 1.7
35 | RQSSSSHSMNSGQNILPFRL | 0.279 ± 0.93
36 | LKSIPNCFRHFYVNTFS | -0.923 ± 0.49
37 | SNGMRRLTKVDEHSL | 0.933 ± 0.54
38 | VVLSIYTNITSCCDLLTSRR | 6.787 ± 0.047
39 | LYNIVCLSDIL | 5.88 ± 0.061
40 | TLDLTHNLCLG | 0.491 ± 0.37
41 | EVPSMRVNAPLKV | inactive
42 | RPNLDWFLRLGFSYKCDDRR | 4.56 ± 0.13
43 | NVTSAR | 0.185 ± 1.1
44 | TYRCGHLLGFVY | inactive

Row | Substance | amyloid nucleation score
45 | LVRDHRYFEFLASV | 0.381 ± 0.39
46 | CKYVRTQVWSHRLPADNCLT | -0.997 ± 0.98
47 | SFFRNLLYFMIRCGNGYRET | -0.109 ± 0.93
48 | VFNTSRLFRSLYPK | 0.573 ± 0.82
49 | NVGLGRWSFCGSMSVK | -0.688 ± 0.58
50 | EDEYQDPTTGVIHVVMGTCV | 0.044 ± 1.1
51 | PTDRVVLNCM | inactive
52 | ACRGPNSHRFTGILHIFFLE | 0.705 ± 0.67
53 | YQFGLEKSMLGRGY | 0.36 ± 0.41
54 | SNCRDKRFMY | 0.637 ± 0.79
55 | SSKEWLNADAVPGNGVEAIV | -0.338 ± 0.53
56 | ALITFSRGWLAPLMGQQMVL | inactive
57 | NACIPQVFCGSLLKFALQLW | 3.28 ± 0.088
58 | YNYVG | -1.29 ± 2.7
59 | VCTYGFGC | inactive
60 | RWVVSVPISCARACFSG | 0.579 ± 0.73
61 | ARWLIEAVWSMYRFHYIGKR | -0.722 ± 0.52
62 | GLCFDARLLEL | -1.87 ± 2.7
63 | TDLAHLSVSMFDNFSRELVL | -0.323 ± 1.6
64 | GMVSIL | -0.278 ± 1.2
65 | ILAVLVTYIANTACSWYYVF | 0.052 ± 0.64
66 | MMKSRLDPCDNDNFFGRVSH | -0.257 ± 0.85

Row | Substance | amyloid nucleation score
67 | IMVHWMIYCGRMYLHCSSIV | 0.086 ± 0.97
68 | LLTMFLFNGSKYFLH | 2.3 ± 0.2
69 | LNNSGVTTICLAGRVTFCTD | 6.55 ± 0.075
70 | AYFMDASFNVFIDISFGGGL | 8.115 ± 0.046
71 | EIRQVECLTCMRQ | -0.839 ± 1.2
72 | NSVYGTIDYGPHCFVNEGNF | inactive
73 | RRCRVEFLYVHSDYM | 3.79 ± 0.097
74 | DGVVCMNAVCFQTMYVMYWL | 6.69 ± 0.08
75 | DRIFDHGIHMFSIVGQDLFT | inactive
76 | FYSALLGQTRYSRSSRSSTE | inactive
77 | CQCGMVGVL | -0.005 ± 0.45
78 | NIYNVRLIVSH | -0.018 ± 0.54
79 | SCLNVNVMLYSWESVGPKSG | inactive
80 | RSCKLWY | -0.204 ± 0.85
81 | FVLSNIPVAYLANANNAFHF | 0.677 ± 0.52
82 | ATYAYRFRLVSTIICLD | -0.222 ± 1.4
83 | FSHKRW | -0.479 ± 0.48
84 | IYRLTCETEVRCGTFNDIVD | 0.105 ± 0.21
85 | MYGLVLCIYVSHVVR | 1.54 ± 0.43
86 | IDMLFPFCCVALRSHRSLEG | 0.722 ± 0.46
